# Measurements: PMC6547412
# T1: eIF4G-MC (eIF4G) (yeast, UniProt P39935 572-952)
# T1 sequence: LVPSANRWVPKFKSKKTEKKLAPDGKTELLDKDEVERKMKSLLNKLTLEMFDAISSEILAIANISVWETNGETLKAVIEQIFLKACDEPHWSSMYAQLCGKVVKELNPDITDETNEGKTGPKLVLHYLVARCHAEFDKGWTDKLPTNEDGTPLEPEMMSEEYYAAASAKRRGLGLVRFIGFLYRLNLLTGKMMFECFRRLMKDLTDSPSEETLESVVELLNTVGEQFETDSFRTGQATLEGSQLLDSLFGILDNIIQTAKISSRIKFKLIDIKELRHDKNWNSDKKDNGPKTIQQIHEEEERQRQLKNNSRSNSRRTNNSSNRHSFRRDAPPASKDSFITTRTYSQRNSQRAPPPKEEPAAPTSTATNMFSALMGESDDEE
# T2: eIF4A;eIF4G-MC (eIF4G) (yeast;yeast, UniProt P10081;P39935 1-395;572-952, |)
# T2 sequence 1: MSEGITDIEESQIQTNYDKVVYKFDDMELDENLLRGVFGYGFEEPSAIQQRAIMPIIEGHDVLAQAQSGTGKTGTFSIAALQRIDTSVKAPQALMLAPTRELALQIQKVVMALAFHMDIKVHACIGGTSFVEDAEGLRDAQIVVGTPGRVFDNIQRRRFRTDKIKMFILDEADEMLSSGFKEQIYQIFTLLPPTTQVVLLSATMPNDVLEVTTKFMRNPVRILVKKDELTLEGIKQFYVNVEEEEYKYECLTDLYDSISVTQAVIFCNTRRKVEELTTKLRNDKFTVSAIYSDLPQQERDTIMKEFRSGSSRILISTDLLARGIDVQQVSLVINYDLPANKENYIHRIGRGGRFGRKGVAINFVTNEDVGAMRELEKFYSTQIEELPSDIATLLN
# T2 sequence 2: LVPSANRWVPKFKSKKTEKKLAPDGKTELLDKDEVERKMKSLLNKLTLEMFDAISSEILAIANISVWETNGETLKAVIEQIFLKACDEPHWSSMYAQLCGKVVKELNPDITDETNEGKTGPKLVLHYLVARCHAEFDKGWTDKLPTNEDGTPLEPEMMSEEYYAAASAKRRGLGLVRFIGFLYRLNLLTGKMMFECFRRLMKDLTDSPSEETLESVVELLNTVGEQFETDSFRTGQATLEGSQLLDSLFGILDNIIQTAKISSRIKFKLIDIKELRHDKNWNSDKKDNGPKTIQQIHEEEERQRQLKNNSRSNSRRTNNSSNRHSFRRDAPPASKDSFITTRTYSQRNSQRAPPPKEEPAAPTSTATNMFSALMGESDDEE
# T3: eIF4A;eIF4B;eIF4G-MC (eIF4G) (yeast;yeast;yeast, UniProt P10081;P34167;P39935 1-395;1-436;572-952, ||)
# T3 sequence 1: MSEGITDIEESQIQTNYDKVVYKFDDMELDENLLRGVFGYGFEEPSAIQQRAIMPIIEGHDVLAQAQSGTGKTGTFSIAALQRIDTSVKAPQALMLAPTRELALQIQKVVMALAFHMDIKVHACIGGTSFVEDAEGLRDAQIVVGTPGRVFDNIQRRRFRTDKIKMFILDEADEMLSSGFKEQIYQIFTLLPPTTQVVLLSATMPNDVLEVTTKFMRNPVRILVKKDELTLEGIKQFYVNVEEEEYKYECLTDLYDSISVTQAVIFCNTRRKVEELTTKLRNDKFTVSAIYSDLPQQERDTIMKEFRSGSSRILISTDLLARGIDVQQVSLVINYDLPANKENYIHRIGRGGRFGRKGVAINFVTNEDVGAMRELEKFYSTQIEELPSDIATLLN
# T3 sequence 2: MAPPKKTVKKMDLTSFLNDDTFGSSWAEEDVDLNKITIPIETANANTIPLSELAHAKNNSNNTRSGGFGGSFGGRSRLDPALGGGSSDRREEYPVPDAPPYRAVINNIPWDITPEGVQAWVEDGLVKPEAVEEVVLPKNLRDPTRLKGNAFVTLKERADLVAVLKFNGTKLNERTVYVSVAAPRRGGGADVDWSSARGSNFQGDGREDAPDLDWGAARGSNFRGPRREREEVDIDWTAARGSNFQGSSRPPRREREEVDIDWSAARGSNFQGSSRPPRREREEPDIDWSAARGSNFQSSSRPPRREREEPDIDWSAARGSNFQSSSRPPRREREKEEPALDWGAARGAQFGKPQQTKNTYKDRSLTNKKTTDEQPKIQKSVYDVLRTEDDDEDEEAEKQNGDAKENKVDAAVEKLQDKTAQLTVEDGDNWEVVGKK
# T3 sequence 3: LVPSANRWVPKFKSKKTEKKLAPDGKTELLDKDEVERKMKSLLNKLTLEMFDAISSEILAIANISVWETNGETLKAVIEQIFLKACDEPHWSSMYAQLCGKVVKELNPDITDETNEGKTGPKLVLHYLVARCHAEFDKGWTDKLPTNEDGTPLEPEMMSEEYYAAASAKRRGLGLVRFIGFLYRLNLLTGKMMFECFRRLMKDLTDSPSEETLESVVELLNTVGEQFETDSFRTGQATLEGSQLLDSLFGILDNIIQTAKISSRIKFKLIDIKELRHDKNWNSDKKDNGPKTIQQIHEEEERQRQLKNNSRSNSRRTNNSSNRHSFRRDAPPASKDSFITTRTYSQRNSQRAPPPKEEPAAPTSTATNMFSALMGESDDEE
# T4: eIF4B (yeast, UniProt P34167 1-436)
# T4 sequence: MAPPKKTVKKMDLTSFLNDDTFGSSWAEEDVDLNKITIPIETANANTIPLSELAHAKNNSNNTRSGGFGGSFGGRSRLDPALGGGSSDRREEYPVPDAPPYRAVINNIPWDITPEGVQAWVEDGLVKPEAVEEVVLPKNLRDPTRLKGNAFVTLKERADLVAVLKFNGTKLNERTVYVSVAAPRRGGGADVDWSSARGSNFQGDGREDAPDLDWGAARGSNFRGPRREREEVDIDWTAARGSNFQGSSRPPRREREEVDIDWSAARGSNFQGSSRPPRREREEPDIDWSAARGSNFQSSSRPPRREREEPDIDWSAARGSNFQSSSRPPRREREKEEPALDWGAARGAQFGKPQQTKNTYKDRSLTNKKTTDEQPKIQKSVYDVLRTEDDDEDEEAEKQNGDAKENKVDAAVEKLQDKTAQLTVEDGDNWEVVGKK
# Columns and labels:
# [1] = target: T1, eIF4G-MC (eIF4G); test: EMSA
# [2] = target: T2, eIF4A;eIF4G-MC (eIF4G); test: EMSA
# [3] = target: T3, eIF4A;eIF4B;eIF4G-MC (eIF4G); test: fluorescence anisotropy
# [4] = target: T4, eIF4B; test: EMSA
Binder,binding result [1],binding result [2],Kd [3] [µM],binding result [4]
20/10mer RNA (dsRNA) RNA 1: ACUAGCACCGUAAAGCACGC RNA 2: GCUUUACGGU,no binding,binds,3.5 ± 0.5,–
30/10mer RNA (dsRNA) RNA 1: GGGGAGAAAAACUAGCACCGUAAAGCACGC RNA 2: GCUUUACGGU,–,–,1.2 ± 0.3,binds
